Results from patent US20200248181.

Test system: gluten (wheat allergen)
Experiment: SPR
Details: 20-mer poly(dA) added at 5' end for SPR immobilization; 40 mM HEPES pH 7.5, 125 mM NaCl, 5 mM KCl, 1 mM MgCl2, 0.01% Tween 20; aptamer immobilized via poly(dA)/biotin-poly(dT)

Sequence | Kd
GAGGTTGGGTGGGGGAGG [Aptamer 2] | 18.6 nM
GAGGTTGGGTGGGGGAGGCAGCATGCGGGA [Aptamer 1] | 14.5 nM
